Experimental data reported in paper PMC10613257 (2023).

Target: insulin-like growth factor binding protein 5 (IGFBP5), full length, wild type (UniProt P24593 21-272, labelled with FAM-maleimide, 6-isomer after reduction with TCEP (in the fluorescence polarisation assay))
Experiment: FP

insulin-like growth factor binding protein 5 (IGFBP5), full length, wild type, sequence (P24593 21-272): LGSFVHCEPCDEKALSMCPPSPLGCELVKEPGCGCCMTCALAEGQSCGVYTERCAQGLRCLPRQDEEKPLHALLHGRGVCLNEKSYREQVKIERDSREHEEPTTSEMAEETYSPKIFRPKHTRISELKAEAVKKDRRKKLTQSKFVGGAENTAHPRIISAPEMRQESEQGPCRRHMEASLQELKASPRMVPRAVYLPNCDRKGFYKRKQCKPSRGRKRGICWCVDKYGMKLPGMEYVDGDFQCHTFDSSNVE

B1: PAPP-A E483A (catalytically inactive) (enzyme)
chain: REARGATEEPSPPSRALYFSGRGEQLRLRADLELPRDAFTLQVWLRAEGGQRSPAVITGLYDKCSYISRDRGWVVGIHTISDQDNKDPRYFFSLKTDRARQVTTINAHRSYLPGQWVYLAATYDGQFMKLYVNGAQVATSGEQVGGIFSPLTQKCKVLMLGGSALNHNYRGYIEHFSLWKVARTQREILSDMETHGAHTALPQLLLQENWDNVKHAWSPMKDGSSPKVEFSNAHGFLLDTSLEPPLCGQTLCDNTEVIASYNQLSSFRQPKVVRYRVVNLYEDDHKNPTVTREQVDFQHHQLAEAFKQYNISWELDVLEVSNSSLRRRLILANCDISKIGDENCDPECNHTLTGHDGGDCRHLRHPAFVKKQHNGVCDMDCNYERFNFDGGECCDPEITNVTQTCFDPDSPHRAYLDVNELKNILKLDGSTHLNIFFAKSSEEELAGVATWPWDKEALMHLGGIVLNPSFYGMPGHTHTMIHAIGHSLGLYHVFRGISEIQSCSDPCMETEPSFETGDLCNDTNPAPKHKSCGDPGPGNDTCGFHSFFNTPYNNFMSYADDDCTDSFTPNQVARMHCYLDLVYQGWQPSRKPAPVALAPQVLGHTTDSVTLEWFPPIDGHFFERELGSACHLCLEGRILVQYASNASSPMPCSPSGHWSPREAEGHPDVEQPCKSSVRTWSPNSAVNPHTVPPACPEPQGCYLELEFLYPLVPESLTIWVTFVSTDWDSSGAVNDIKLLAVSGKNISLGPQNVFCDVPLTIRLWDVGEEVYGIQIYTLDEHLEIDAAMLTSTADTPLCLQCKPLKYKVVRDPPLQMDVASILHLNRKFVDMDLNLGSVYQYWVITISGTEESEPSPAVTYIHGSGYCGDGIIQKDQGEQCDDMNKINGDGCSLFCRQEVSFNCIDEPSRCYFHDGDGVCEEFEQKTSIKDCGVYTPQGFLDQWASNASVSHQDQQCPGWVIIGQPAASQVCRTKVIDLSEGISQHAWYPCTISYPYSQLAQTTFWLRAYFSQPMVAAAVIVHLVTDGTYYGDQKQETISVQLLDTKDQSHDLGLHVLSCRNNPLIIPVVHDLSQPFYHSQAVRVSFSSPLVAISGVALRSFDNFDPVTLSSCQRGETYSPAEQSCVHFACEKTDCPELAVENASLNCSSSDRYHGAQCTVSCRTGYVLQIRRDDELIKSQTGPSVTVTCTEGKWNKQVACEPVDCSIPDHHQVYAASFSCPEGTTFGSQCSFQCRHPAQLKGNNSLLTCMEDGLWSFPEALCELMCLAPPPVPNADLQTARCRENKHKVGSFCKYKCKPGYHVPGSSRKSKKRAFKTQCTQDGSWQEGACVPVTCDPPPPKFHGLYQCTNGFQFNSECRIKCEDSDASQGLGSNVIHCRKDGTWNGSFHVCQEMQGQCSVPNELNSNLKLQCPDGYAIGSECATSCLDHNSESIILPMNVTVRDIPHWLNPTRVERVVCTAGLKWYPHPALIHCVKGCEPFMGDNYCDAINNRAFCNYDGGDCCTSTVKTKKVTPFPMSCDLQGDCACRDPQAQEHSRKDLRGYSHG
Binder B1 has a Kd of 237 nM.
